Assay results taken from US20250295799A1 (Zymeworks, published 2025).

B1: v37574 (M3-H18L6) (antibody, human IgG1, kappa)
heavy: not shown
light: EIVLTQSPATLSLSPGERATISCRSSQSLRHSNGNTYLQWYQQKPGQAPRLLIYKVSNRFSGVPARFSGSGSGTDFTLTISSLEPEDFAVYFCYQSKHVPYTFGGGTKVEIKRTVAAPSVFIFPPSDEQLKSGTASVVCLLNNFYPREAKVQWKVDNALQSGNSQESVTEQDSKDSTYSLSSTLTLSKADYEKHKVYACEVTHQGLSSPVTKSFNRGEC
notes: humanized full-size IgG1 (IGHG1*01)/kappa antibody without heavy chain C-terminal lysine
B2: v38592-MC-GGFG-AM-Compound 139, DAR 8 (antibody, human IgG1, kappa)
heavy: not shown
light: B1 light
modifications: MC-GGFG-AM-Compound 139 drug-linker on reduced cysteines, sites not stated; MC-GGFG-AM-Compound 139 drug-linker on reduced cysteines, sites not stated; DAR 8 for the whole antibody
notes: antibody-drug conjugate
B3: v38592-MC-GGFG-AM-Compound 139, DAR 8 (antibody, human IgG1, kappa)
heavy: not shown
light: B1 light
modifications: MC-GGFG-AM-Compound 139 drug-linker on cysteines (positions not stated); DAR 8 per antibody
notes: Antibody-drug conjugate of v38592
B4: v38592-MC-GGFG-AM-Compound 139, DAR 4 (antibody, human IgG1, kappa)
heavy: not shown
light: B1 light
modifications: MC-GGFG-AM-Compound 139 drug-linker on cysteines (positions not stated); DAR 4 per antibody
notes: as for B3

Key:
[1] = biological target: T1, recombinant human GPC3 (ACROBiosystems) (human, UniProt P51654 25-559); test: SPR, antibody captured on anti-Fc, GPC3 injected, 1:1 fit
T1 construct: bought antigen of the SPR assays, SEC purified; also called huGPC3; hGPC3
Description: (§1) Antigens: recombinant human and cynomolgus GPC3 was purchased from ACROBiosystems (Newark, DE) and SEC purified on a Superdex 200 10/300 GL column (Cytiva) in PBST running buffer at 0.8 mL/min.
(§2) Screening of the antibodies for binding to GPC3 antigen was conducted via anti-Fc capture of antibodies, followed by the injection of five concentrations of GPC3. The anti-Fc surface was prepared on a CM5 Series S sensor chip by standard amine coupling methods as described by the manufacturer (Cytiva Life Sciences, Mississauga, ON, Canada). […] Approximately 500-600 RUs of each antibody (1-3 μg/mL) were captured on the goat anti-human IgG surface by injecting at 10 μL/min for 60s. Using single-cycle kinetics, five concentrations of a two-fold dilution series of human or cynomolgus GPC3 starting at 40 nM (or 20 nM) with a blank buffer control were injected at 40 μL/min for 180s of contact time, followed by 180 s (or 300 s) dissociation phase, resulting in sensorgrams with a buffer blank reference. The anti-Fc surface was regenerated to prepare for the next injection cycle by one pulse of 10 mM glycine/HCl pH 1.5 for 180 s at 40 μL/min. Blank-subtracted sensorgrams were analyzed using Biacore™ T200 Evaluation Software v3.0. The blank-subtracted sensorgrams were then fit to the 1:1 Langmuir binding model.

[2] = biological target: T2, recombinant cynomolgus GPC3 (ACROBiosystems) (cynomolgus monkey, UniProt A5A6P7 25-559 (Pan troglodytes entry), limits assumed); test: as above
T2 construct: bought antigen of the SPR assays; also called cynoGPC3
Description: as §1, §2

[3] = biological target: T3, cynomolgus monkey GPC3 on CHO-S transfected cells (cynomolgus monkey, UniProt A5A6P7 25-554 (Pan troglodytes entry)); test: flow cytometry, CHO-S cells transfected with cynomolgus monkey GPC3; apparent Kd
T3 construct: transient expression from a pTT5-based plasmid; also called CHO-S Cyno GPC3; CynoGPC3-CHO
Description: (§3) Briefly, CHO—S cells were transiently transfected for −24 hours with a pTT5-based expression plasmid encoding human GPC3 or cynomolgus monkey GPC3, 0.5 μg DNA per 1 million cells, using the Neon™ Transfection System (Thermo Fisher Scientific Corp., Waltham, MA), to transiently express human or cynomolgus monkey GPC3. Following transfection, cells were seeded at 50,000 cells/well in V-bottom 96-well plates and treated with antibody for 24 hours at 4° C. to prevent internalization. […] Following incubation and washing, fluorescence was detected by flow cytometry on a BD LSRFortessa™ Cell Analyzer (BD Biosciences, Franklin Lake, NJ) with 1,000 minimum events collected per well. AF647/APC-A GeoMean (fluorescence signal geometric mean, proportional to anti-Human AF647 binding) in live cell population was plotted against antibody concentration using GraphPad Prism Version 9 (GraphPad Software, San Diego, CA). The Bmax and Kd values were derived from the “Specific binding with Hill slope” nonlinear regression curve fit in GraphPad Prism Version 9.

[4] = biological target: KLH (Sigma-Aldrich, H8283); test: NS-ELISA, plate coated with KLH, antibody at 100 nM
Description: 50 μL each of insulin, KLH, dsDNA and ssDNA were added to a 96 well plate, followed by the incubation at 37° C. for 2 h. The coating materials were removed, and the plate was blocked with 200 μL of Gibco™ PBS pH7.4, 0.1% Tween®20, and incubated for 1 h at room temperature with shaking at 200 rpm. The plate was washed 3 times with Gibco™ PBS pH7.4, 0.1% Tween 20. 50 μL of each mAb at 100 nM (15 mg/mL) in Gibco™ PBS pH 7.4, 0.1% Tween®20 was added in duplicate to the wells and incubated for 1 h at room temperature with shaking at 200 rpm. Plates were washed three times with Gibco™ PBS pH7.4, 0.1% Tween 20, and 50 μL of 50 ng/mL anti-human IgG HRP (Thermofisher Scientific©, H₁₀₃₀₇) was added to each well. Plates were incubated for 1 h at room temperature, with shaking at 200 rpm. The plate was washed three times with Gibco™ PBS pH7.4, 0.1% Tween 20, and 100 μL of TMB substrate (Cell Signaling Technology©, 7004P6) added to each well. […] Binding scores were calculated as the ratio of the ELISA signal of the antibody to the signal of a well containing buffer instead of the primary antibody. The cutoffs considered for each binding molecule (ssDNA. KLH, Insulin, dsDNA and Heparin) were internally calculated.

human GPC3 on cells [5] = biological target: T4, human GPC3 on cells (human, UniProt P51654 25-554); test: flow cytometry, HepG2 cells
T4 construct: GPI-anchored protein on transfected CHO-S cells, on human tumor cell lines or on HEK293T cells; the cell is named under assay; also called human GPC3 on CHO-S transfected cells; HuGPC3-CHO
Description: (§4) Briefly, cells were seeded at 50,000 cells/well in V-bottom 96-well plates and treated with antibody for 24 hours at 4° C. to prevent internalization. […] Following incubation and washing, fluorescence was detected by flow cytometry on a BD LSRFortessa™ Cell Analyzer (BD Biosciences, Franklin Lake, NJ) with 1,000 minimum events collected per well. AF647/APC-A GeoMean (fluorescence signal geometric mean, proportional to anti-Human AF647 binding) in live cell population was plotted against antibody concentration using GraphPad Prism Version 9 (GraphPad Software, San Diego, CA). The Bmax, Curve Hill Slope (h) and Kd values were derived from the “Specific binding with Hill slope” nonlinear regression curve fit in GraphPad Prism Version 9.

human GPC3 on cells [6] = biological target: T4, human GPC3 on cells; test: flow cytometry, JHH-7 cells; apparent Kd
Description: as §4

human GPC3 on cells [7] = biological target: T4, human GPC3 on cells; test: flow cytometry, CHO-S cells transfected with human GPC3; apparent Kd
Description: as §3

human GPC3 on cells [8] = biological target: T4, human GPC3 on cells; test: flow cytometry on HepG2 cells (GPC3-high), 24 h at 4 C, anti-human IgG Fc AF647
Description: as §4

human GPC3 on cells [9] = biological target: T4, human GPC3 on cells; test: flow cytometry, HepG2 cells; apparent Kd
Description: as §4

human GPC3 on cells [10] = biological target: T4, human GPC3 on cells; test: flow cytometry on JHH-7 cells (GPC3-high), 24 h at 4 C, anti-human IgG Fc AF647
Description: as §4

human GPC3 on cells [11] = biological target: T4, human GPC3 on cells; test: flow cytometry, JHH-7 cells
Description: as §4

human GPC3 on cells [12] = biological target: T4, human GPC3 on cells; test: flow cytometry on JHH-5 cells (GPC3-mid), 24 h at 4 C, anti-human IgG Fc AF647
Description: (§5) Cell lines investigated included GPC3-hi HepG2 and JHH-7 cells, GPC3-mid JHH-5 cells, as well as GPC3-negative SNU-601 cells.
as §4

human GPC3 on cells [13] = biological target: T4, human GPC3 on cells; test: flow cytometry on HepG2 cells (GPC3-high), 24 h at 4 C, anti-human IgG Fc AF647; remark: listed apart in the source
Description: as §5, §4

human GPC3 on cells [14] = biological target: T4, human GPC3 on cells; test: flow cytometry on JHH-7 cells (GPC3-high), 24 h at 4 C, anti-human IgG Fc AF647; remark: listed apart in the source
Description: as §5, §4

human GPC3 on cells [15] = biological target: T5, human GPC3 on cells (human, UniProt P51654 25-554); test: flow cytometry, CHO-S cells transfected with human GPC3
T5 construct: whole, on cells; One molecule is used for transfected CHO-S cells and for tumour cell lines that carry GPC3; the cell line is named under assay or readout; also called CHO-S Human GPC3; GPC3 on HepG2, JHH-7, JHH-5, NCI-H446, FU-97, Huh-6, Huh-7, MKN-45 cells
Description: as §3

human GPC3 on cells [16] = biological target: T5, human GPC3 on cells; test: flow cytometry, CHO-S cells transfected with human GPC3; apparent Kd
Description: as §3

[17] = biological target: T6, cynomolgus monkey GPC3 on CHO-S cells (cynomolgus monkey, UniProt A0A2K5VK50 24-553); test: flow cytometry, CHO-S cells transfected with cynomolgus monkey GPC3
T6 construct: whole, on cells; also called CHO-S Cyno GPC3
Description: as §3

human GPC3 on cells [18] = biological target: T5, human GPC3 on cells; test: flow cytometry, JHH-7 cells
Description: as §5, §4

human GPC3 on cells [19] = biological target: T5, human GPC3 on cells; test: flow cytometry, JHH-5 cells
Description: as §5, §4

[20] = biological target: T6, cynomolgus monkey GPC3 on CHO-S cells; test: flow cytometry, CHO-S cells transfected with cynomolgus monkey GPC3; apparent Kd
Description: as §3

human GPC3 on cells [21] = biological target: T5, human GPC3 on cells; test: flow cytometry, HepG2 cells
Description: as §5, §4

Row | Binder | Bmax (human GPC3 on cells [15]) | Kd (human GPC3 on cells [16]) | Bmax [17] | Bmax (human GPC3 on cells [18]) | Kd (human GPC3 on cells [18]) | Bmax (human GPC3 on cells [19]) | Kd (human GPC3 on cells [19]) | Kd [20] | Bmax (human GPC3 on cells [21]) | Kd (human GPC3 on cells [21]) | further results
1 | B1 |  |  |  |  |  |  |  |  |  |  | Kd [1]: 11.1 nM; Kd [2]: 11.1 nM; Kd [3]: 0.38 nM; NS-ELISA binding score [4]: 0.91 ratio to buffer well; Bmax (human GPC3 on cells [5]): 33900; Kd (human GPC3 on cells [6]): 0.22 nM; Kd (human GPC3 on cells [7]): 0.53 nM; EC50 (read off the curve) (human GPC3 on cells [8]): ~0.7 nM; Kd (human GPC3 on cells [9]): 1.1 nM; EC50 (read off the curve) (human GPC3 on cells [10]): ~0.2 nM; Bmax (human GPC3 on cells [11]): 8520; EC50 (read off the curve) (human GPC3 on cells [12]): ~0.2 nM
2 | B2 |  |  |  |  |  |  |  |  |  |  | EC50 (read off the curve) (human GPC3 on cells [13]): ~7 nM; EC50 (read off the curve) (human GPC3 on cells [14]): ~0.8 nM
3 | B3 | 247 | 0.33 nM | 511 | 4550 | 0.7 nM | 5710 | 0.51 nM | 0.7 nM | 3370 | 7.27 nM | 
4 | B4 | 259 | 0.29 nM | 506 | 4730 | 0.88 nM | 5500 | 0.43 nM | 0.55 nM | 4050 | 8.69 nM | 
